In publication PMC8573201 one finds β-arrestin 2 recruitment in HEK293 cells (BRET, GRK2 co-expressed), EC50 of GIP(1-42), β-arrestin 2 recruitment in HEK293 cells (BRET between Rluc8-Arrestin-3-Sp1 and mem-linker-citrine-SH3, GRK2 co-expressed) on stimulation with GIP(1-42), Emax and β-arrestin 2 recruitment in HEK293 cells (BRET, GRK2 co-expressed), pEC50 of GIP(1-42) data, which are given here for one substance.

In assay [1] the target is T1, human GIPR variant E288G (human) (UniProt P48546).
T1 sequence: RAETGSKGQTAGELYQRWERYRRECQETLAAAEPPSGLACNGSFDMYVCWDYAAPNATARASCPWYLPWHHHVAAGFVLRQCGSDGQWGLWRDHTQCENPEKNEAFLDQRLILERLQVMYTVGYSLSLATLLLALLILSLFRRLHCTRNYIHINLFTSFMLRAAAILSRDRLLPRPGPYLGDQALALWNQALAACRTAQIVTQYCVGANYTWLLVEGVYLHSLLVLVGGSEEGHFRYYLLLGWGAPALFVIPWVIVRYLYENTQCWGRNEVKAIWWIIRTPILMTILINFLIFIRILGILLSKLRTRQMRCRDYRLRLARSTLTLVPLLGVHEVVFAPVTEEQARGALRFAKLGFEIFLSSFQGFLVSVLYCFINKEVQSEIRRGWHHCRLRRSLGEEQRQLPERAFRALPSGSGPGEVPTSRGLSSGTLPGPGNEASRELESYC

The target of assay [2] is T2, wild-type human GIP receptor (GIPR) (human) (UniProt P48546).
T2 sequence: T1 sequence with G267E

For assay [3], the target named is T3, human GIPR variant R190Q (human) (UniProt P48546).
T3 sequence: T1 sequence with R169Q, G267E

The target in assay [4] is T4, human GIPR double mutant R190Q-E288G (human) (UniProt P48546).
T4 sequence: T1 sequence with R169Q

Assay [5] addresses T1, human GIPR variant E288G (human). This is another data set of the same source.
Assay [6] addresses T2, wild-type human GIP receptor (GIPR) (human). The source holds these as a separate data set.
In assay [7] the target is T3, human GIPR variant R190Q (human). The source holds these as a separate data set.
For assay [8], the target named is T4, human GIPR double mutant R190Q-E288G (human). This is another data set of the same source.
The mark [9] stands for this setting: scale: negative logarithm of molar concentration.

Changes are numbered by the printed parent chain.

Sequence of Rluc8-Arrestin-3-Sp1 (P32121 whole entry): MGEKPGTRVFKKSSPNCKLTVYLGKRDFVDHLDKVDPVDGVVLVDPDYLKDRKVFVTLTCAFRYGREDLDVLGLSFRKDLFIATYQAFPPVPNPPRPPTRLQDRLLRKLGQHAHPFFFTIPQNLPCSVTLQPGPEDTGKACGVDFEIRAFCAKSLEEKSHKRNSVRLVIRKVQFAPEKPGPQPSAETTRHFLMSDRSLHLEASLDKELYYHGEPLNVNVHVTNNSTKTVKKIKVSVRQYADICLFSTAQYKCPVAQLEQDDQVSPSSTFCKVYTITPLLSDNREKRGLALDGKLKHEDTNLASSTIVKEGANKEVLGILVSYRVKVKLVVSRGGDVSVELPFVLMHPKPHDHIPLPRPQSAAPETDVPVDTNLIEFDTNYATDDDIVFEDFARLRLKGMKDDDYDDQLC

Take “Rluc8-Arrestin-3-Sp1 (from UniProt P32121 1-409) (natural protein)”: the β-arrestin 2 recruitment in HEK293 cells (BRET, GRK2 co-expressed), EC50 of GIP(1-42) in assay [1] came out at 230 pM; in assay [2], 880 pM; in assay [3], 760 pM; in assay [4] it was 11000 pM. For the same substance, the β-arrestin 2 recruitment in HEK293 cells (BRET between Rluc8-Arrestin-3-Sp1 and mem-linker-citrine-SH3, GRK2 co-expressed) on stimulation with GIP(1-42), Emax in assay [5] was 8.6 % of WT; in assay [6] it was 98 % of WT; in assay [7] it was 9 % of WT; in assay [8], 12 % of WT. Besides, the β-arrestin 2 recruitment in HEK293 cells (BRET, GRK2 co-expressed), pEC50 of GIP(1-42) in assay [5] (setting [9]) was 9.6; in assay [6] (setting [9]), 9.1; in assay [7] (setting [9]), 9.1; in assay [8] (setting [9]) it was 8.
